What was measured:
Conditions in all cases: reference: wild type; sites S248
14-3-3β [1] = target: 14-3-3β (UniProt P31946); test: Flag-Rubicon complex purification, immunoblot
V5-14-3-3β = V5-14-3-3β (UniProt P31946); test: co-IP with αV5, blot αFlag
14-3-3β [2] = target: 14-3-3β (UniProt Q9CQV8); test: co-IP with αFlag, blot α14-3-3β

Measured: binding against the reference

Rubicon (from UniProt Q92622) S248A
lost: all assays above

Source: paper PMC3615900
